Measured values as given in US20260234247A1 (published 2026).
Residue numbers refer to the chain shown, from its start.

B1: LK-RB2-31 (antibody, human IgG4 S228P, kappa, V domains shown)
VH: QVQLQQPGAELVKPGASMKLSCKASGYTFTTYYMYWVKQRPGLGLEWIGGINPSNGGTTFNEKFKNKATLTVDKSSSTAYMQLRSLTSEDSAVYYCTRWRFFDVWGAGTTVTVSS
VL: SIVMTQTPEFLLVSAGDRVTITCKASQSVNNDVAWFQQKPGQSPKLLIYYASNRYTGVPDRFTGSGYGTDFTFTISTVQAEDLAIYFCQQDYSSPPTFGGATKLEIKR
B2: LK-RB2-25 (antibody, human IgG4 S228P, kappa, V domains shown)
VH: QVQLKESGPGLVAPSQSLSITCTVSGFSLTSYGVHWVRQPPGKGLEWLGVIWAGGSTKYNSALMSRLSINKDNSKSQVFLKMNSLQTDDTAMYYCARDQMVRSAMDYWGQGTSVTVSS
VL: DIQMIQSPSSMFASLGDRVSLSCRASQGIRGNLDWYQQKPGGTIKLLIYSTSNLNSAVPSRFSGSGSGSDYSLTISNLESEDFADYYCLQRNASPYTFGGGTKLEIKR
B3: LK-RB2-32 (antibody, human IgG4 S228P, kappa, V domains shown)
VH: DVQLQESGPGLVKPSQSLSLTCSVTGYSITSGYYWNWIRQFPGNKLEWMGYISFDGSNHYNPSLRNRISITRDTFKNQFFLKLNSVTTEDTATFYCTRRDYNWFAYWGQGTLVTVSA
VL: DIVLTQSPVTLSVTPGDSVSLSCRASQNINKNLHWYQQRSHESPRLLIKYVSQSISGIPSRFSGSGSGTDFTLSINSVETEDFGMYFCQQSNSWPLTFGAGTKLELRR
B4: LK-RB2-41 (antibody, human IgG4 S228P, kappa, V domains shown)
VH: EVQLQLSGPELVKPGASVKMSCKASGYTFTDYNMHWVKQSHGKSLEWIGYINPNNGGTTYNQKFKGKATLTVNKSSSTAYMELRSLTSEDSAVYYCARAPYYGSSYLLAYWGQGTLVTVSA
VL: DIVMTQSHKFMSTSVGDRVSITCKASQDVSTAVAWYQQKPGQSPKLLIYSASYRYTGVPDRFTGSGSGTDFTFTISSVQAEDLAIYYCQQHYSIPWTFGGGTKLEIKR
B5: LK-RB2-47 (antibody, human IgG4 S228P, kappa, V domains shown)
VH: QVQLKQSGPGLVQPSQSLSITCTVSGFSLISYGVHWVRQSPGKGLEWLGVIWSGGSTDYNAAFISRLSISKDNSKSQVFFKMNSLQADDTAIYYCARSFHYHGSTFDYWGQGTTLTVSS
VL: DIQMTQTTSSLSASLGDRVIISCRASQDINNYLNWYQQKPDGTVKLLIYFTSRLHSGVPSSFSGSGSGTDYSLTINNLEQEDIATYFCQQVNTLPYTFGGGTKLEIKR
B6: LK-RB2-42 (antibody, human IgG4 S228P, kappa, V domains shown)
VH: EFQLQQSGPELVKPGASVKISCKASGYSFTDYNMNWVKQSNGKSLDWIGIINPKYGTTAYNQKLRDKATLTVDQSSSTAYMQLNSLTSEDSAVYYCASLNWDEGFAYWGQGTLVTVSP
VL: DVLMTQTPLSLPVSLGDQASISCRSSQSIVHSNGNTYLEWYLQKPGQPPKLLIYKVSNRFSGVPERFSGSGSGTDFTLKINRVEAEDLGVYYCFQGSLVPPTFGGGTKLEIKR
B7: LK-RB2-34 (antibody, human IgG4 S228P, kappa, V domains shown)
VH: DVKVVESGGGLVKPGGSLKLSCAASGFTFSSYSMSWVRQTPEKRLEWVATISTGSSYTYYSDSVKGRFTISRDNAKNTLYLQMSSLKSEDTAMFYCTRGSMDYWGQGTSVTVSS
VL: DILMTQSPSSMSVSLGDTVSITCHASQDISSNIGWLQQKPGNSFKGLIYHGINLEDGVPSRFSGSGSGADYSLTISSLESEDFADYYCVQYAQFPYTFGGGTKLEIKR
B8: LK-RB2-44 (antibody, human IgG4 S228P, kappa, V domains shown)
VH: EVQLVESGGDLVKPGGSLKLSCAASGFTFSSYGMSWVRQTPDKRLEWVATISGGGTYTYYPDSVKGRFTISRDNAKNTLYLQMSSLKSEDTAMYYCASGAMDYWGQGTSVTVSS
VL: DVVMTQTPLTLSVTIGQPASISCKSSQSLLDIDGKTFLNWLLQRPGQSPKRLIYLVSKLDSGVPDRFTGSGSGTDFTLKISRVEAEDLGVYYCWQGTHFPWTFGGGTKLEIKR
B9: LK-RBi-01 (bispecific antibody, human IgG4 S228P, kappa)
heavy: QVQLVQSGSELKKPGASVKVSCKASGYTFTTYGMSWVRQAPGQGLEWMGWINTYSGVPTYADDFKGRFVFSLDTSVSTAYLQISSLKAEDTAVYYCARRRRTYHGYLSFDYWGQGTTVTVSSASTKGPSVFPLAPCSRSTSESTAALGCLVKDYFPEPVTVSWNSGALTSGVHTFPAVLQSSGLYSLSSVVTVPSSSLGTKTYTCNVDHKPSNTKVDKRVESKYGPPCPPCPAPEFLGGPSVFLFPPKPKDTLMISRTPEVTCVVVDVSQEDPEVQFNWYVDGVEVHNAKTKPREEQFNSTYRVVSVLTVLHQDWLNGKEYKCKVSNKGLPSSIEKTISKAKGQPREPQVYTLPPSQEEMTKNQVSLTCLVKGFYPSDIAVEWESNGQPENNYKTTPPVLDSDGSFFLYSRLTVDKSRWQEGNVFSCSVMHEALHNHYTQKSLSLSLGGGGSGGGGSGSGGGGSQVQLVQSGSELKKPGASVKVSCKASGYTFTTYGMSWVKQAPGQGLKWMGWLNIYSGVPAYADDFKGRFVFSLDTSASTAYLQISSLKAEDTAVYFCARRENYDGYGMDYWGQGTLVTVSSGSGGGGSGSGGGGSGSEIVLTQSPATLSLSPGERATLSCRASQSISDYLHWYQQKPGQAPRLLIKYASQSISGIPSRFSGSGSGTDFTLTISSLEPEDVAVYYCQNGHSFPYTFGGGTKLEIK
light: DIQMTQSPSSLSASVGDRVTITCETSENIYGALNWYQQKPGKAPKLLIYGATNLAEGVPSRFSGSGSGTDFTFTISSLQPEDIATYYCQNVLNTPWTFGGGTKLEIKRTVAAPSVFIFPPSDEQLKSGTASVVCLLNNFYPREAKVQWKVDNALQSGNSQESVTEQDSKDSTYSLSSTLTLSKADYEKHKVYACEVTHQGLSSPVTKSFNRGEC
B10: LK-RBi-02 (bispecific antibody, human IgG4 S228P, kappa)
heavy: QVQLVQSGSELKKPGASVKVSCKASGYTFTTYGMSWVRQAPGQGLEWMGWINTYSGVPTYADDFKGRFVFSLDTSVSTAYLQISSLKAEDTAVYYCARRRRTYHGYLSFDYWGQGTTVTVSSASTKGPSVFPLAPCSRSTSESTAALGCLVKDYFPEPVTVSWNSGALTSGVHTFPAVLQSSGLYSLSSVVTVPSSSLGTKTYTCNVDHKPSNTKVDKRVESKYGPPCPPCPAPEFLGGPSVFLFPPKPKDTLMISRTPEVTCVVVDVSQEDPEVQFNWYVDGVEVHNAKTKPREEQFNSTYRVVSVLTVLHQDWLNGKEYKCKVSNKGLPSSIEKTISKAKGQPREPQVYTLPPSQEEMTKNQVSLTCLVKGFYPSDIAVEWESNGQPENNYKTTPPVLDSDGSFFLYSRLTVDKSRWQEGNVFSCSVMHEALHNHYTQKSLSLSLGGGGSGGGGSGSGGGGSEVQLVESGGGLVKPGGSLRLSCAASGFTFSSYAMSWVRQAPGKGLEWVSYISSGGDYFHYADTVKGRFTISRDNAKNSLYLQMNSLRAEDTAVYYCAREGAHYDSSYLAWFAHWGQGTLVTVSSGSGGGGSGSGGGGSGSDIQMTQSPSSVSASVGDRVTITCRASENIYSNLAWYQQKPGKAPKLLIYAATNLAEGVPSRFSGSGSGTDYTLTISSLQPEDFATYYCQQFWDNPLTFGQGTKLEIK
light: B9 light
B11: 15G8 (antibody, human IgG4 S228P, kappa, V domains shown)
VH: DVQLQGSGPGLVKPSETLSLTCSVTGYSITSGYYWNWIRQFPGKKLEWMGYISYDGSNNYNPSLKNRITISRDTSKNQFSLKLNSVTAADTATYYCAHGYSYYYAMDAWGQGTSVTVSS
VL: DIQMTQSPSSLSASVGDRVTITCRTSQDISNYLNWYQQKPGKAVKLLISYTSRLHSGVPSRFSGSGSGTDYTLTISSLQPEDFATYYCQQGNTLPTFGQGTKLEIKR
B12: J19.h1 (antibody, human IgG4 S228P, kappa, V domains shown)
VH: QITLKESGPTLVKPTQTLTLTCTFSGFSLNTYAMGVSWIRQPPGKALEWLASIWWNGNKYNNPSLKSRLTVTKDTSKNQVVLTMTNMDPVDTATYYCAHSRIIRFTDYVMDAWGQGTLVTVSS
VL: DIQMTQSPSSLSTSVGDRVTITCRASEDIYNDLAWYQQKPGKAPKLLIYNANSLHTGVASRFSGSGSGTDFTFTISSLQPEDVATYFCQQYYDYPLTFGQGTKLEIKR
B13: LK-RB1-9 (antibody, human IgG4 S228P, kappa, V domains shown)
VH: QIQLVQSGPELKKPGETVKISCTASGYTFTTYGMSWVKQAPGKGLKWMGWINTYSGVPTYADDFKGRFAFSLETSASTAYLEINNVKNEDTATYFCARRRRTYHGYLCFDYWGQGTTLTVSS
VL: DIQMTQSPVSLSASVGETVTITCETSENIYGALNWYQRKQGKSPQLLIYGATNLADGMSSRFSGSGSGRQYSLEISSLHPDDVASYYCQNVLNTPWTFGGGTKLEIKR
notes: Anti-LILRB1 antibody from mouse hybridoma; parental antibody of LK-RB1-9.h1 to h3
B14: LK-RB1-9.h2 (antibody, human IgG4, kappa, V domains shown)
VH: QVQLVQSGSELKKPGASVKVSCTASGYTFTTYGMSWVRQAPGQGLKWMGWINTYSGVPTYADDFKGRFVFSLDTSVSTAYLQISSLKAEDTAVYFCARRRRTYHGYLSFDYWGQGTTVTVSS
VL: DIQMTQSPSSLSASVGDRVTITCETSENIYGALNWYQQKPGKAPKLLIYGATNLAEGVPSRFSGSGSGTDYTFTISSLQPEDIATYYCQNVLNTPWTFGGGTKLEIKR
notes: Humanized form of LK-RB1-9
B15: LK-RB1-9.h1 (antibody, human IgG4, kappa, V domains shown)
VH: B14 VH with T23K, K46E, F95Y
VL: B14 VL with Y71F
notes: Humanized form of LK-RB1-9
B16: LK-RB1-9.h3 (antibody, human IgG4, kappa, V domains shown)
VH: B14 VH with R38K
VL: B14 VL
notes: Humanized form of LK-RB1-9

The binders below were run against T1, human LILRB1 (human, UniProt Q8NHL6 24-458, limits assumed) (assay: Octet off-rate ranking;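 note: antibody dissociation rate constants against cynomolgus LILRB2 plus human LILRB1, LILRB2, LILRA1 and LILRA2, measured on an Octet instrument to rank binding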).
T1 construct: also called hLILRB1
T1 sequence (Q8NHL6 24-458 limits assumed): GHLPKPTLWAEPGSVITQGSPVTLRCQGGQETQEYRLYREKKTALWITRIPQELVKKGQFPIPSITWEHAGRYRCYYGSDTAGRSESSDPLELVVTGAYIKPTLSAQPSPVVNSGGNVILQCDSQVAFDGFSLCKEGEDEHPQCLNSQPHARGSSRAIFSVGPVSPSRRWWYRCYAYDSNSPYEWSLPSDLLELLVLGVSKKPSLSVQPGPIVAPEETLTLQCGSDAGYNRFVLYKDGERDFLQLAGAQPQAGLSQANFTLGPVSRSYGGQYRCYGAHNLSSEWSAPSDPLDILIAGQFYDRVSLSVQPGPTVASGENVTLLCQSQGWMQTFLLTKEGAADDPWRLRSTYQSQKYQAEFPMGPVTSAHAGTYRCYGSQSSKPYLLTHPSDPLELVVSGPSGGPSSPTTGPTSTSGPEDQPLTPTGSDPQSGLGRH
Excerpt: (§1) Binding affinity of anti-LILRB1 and anti-LILRB2 antibodies against human LILRB1, LILRB2, LILRA1, LILRA2 and cynomolgus LILRB2 was ranked by measuring dissociation rate constant (Kdis) using the Octet system.

koff | Binder
0.00167 s⁻¹ | B1
0.000609 s⁻¹ | B2
0.00186 s⁻¹ | B3

What follows are binders tested against T2, human LILRB2 (human, UniProt Q8N423 22-460, limits assumed) (assay: Octet off-rate ranking;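 note: antibody dissociation rate constants against cynomolgus LILRB2 plus human LILRB1, LILRB2, LILRA1 and LILRA2, measured on an Octet instrument to rank binding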).
T2 construct: also called hLILRB2
T2 sequence (Q8N423 22-460 limits assumed): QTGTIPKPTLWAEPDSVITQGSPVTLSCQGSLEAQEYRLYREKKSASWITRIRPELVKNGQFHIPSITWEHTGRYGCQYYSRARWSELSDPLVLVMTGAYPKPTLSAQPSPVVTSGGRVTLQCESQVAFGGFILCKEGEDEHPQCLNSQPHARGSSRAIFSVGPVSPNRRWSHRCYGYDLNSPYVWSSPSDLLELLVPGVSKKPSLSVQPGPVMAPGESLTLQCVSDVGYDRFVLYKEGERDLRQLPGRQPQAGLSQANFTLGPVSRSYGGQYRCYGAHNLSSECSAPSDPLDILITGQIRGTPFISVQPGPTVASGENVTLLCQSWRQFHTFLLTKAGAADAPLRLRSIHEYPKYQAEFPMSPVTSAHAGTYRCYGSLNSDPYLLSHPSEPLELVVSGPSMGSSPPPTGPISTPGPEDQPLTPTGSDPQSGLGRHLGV
Excerpt: as §1

koff | Binder
0.00291 s⁻¹ | B3
6.33e-06 s⁻¹ | B4

Each binder was assayed against cynomolgus LILRB2 (cynomolgus) (assay: Octet off-rate ranking;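 note: antibody dissociation rate constants against cynomolgus LILRB2 plus human LILRB1, LILRB2, LILRA1 and LILRA2, measured on an Octet instrument to rank binding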).
cynomolgus LILRB2 (cynomolgus), sequence (chain, as listed by the source): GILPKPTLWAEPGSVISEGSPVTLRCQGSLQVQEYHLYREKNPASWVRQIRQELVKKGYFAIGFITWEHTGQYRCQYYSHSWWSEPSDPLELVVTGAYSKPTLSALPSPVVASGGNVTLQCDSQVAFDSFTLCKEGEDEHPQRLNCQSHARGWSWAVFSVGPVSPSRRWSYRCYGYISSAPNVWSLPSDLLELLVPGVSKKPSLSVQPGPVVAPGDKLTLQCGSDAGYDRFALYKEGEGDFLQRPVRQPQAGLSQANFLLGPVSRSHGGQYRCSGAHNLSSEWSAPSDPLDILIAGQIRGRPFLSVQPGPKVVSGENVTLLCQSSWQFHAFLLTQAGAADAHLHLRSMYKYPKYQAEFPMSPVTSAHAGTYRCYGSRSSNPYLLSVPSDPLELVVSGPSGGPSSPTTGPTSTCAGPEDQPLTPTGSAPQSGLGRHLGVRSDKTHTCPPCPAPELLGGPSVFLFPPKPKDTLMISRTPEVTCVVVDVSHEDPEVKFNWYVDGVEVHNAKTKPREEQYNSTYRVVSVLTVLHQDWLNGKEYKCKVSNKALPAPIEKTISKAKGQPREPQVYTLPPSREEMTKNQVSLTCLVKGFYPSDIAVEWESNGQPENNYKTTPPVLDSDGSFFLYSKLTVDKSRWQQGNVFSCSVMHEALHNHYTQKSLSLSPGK
Excerpt: as §1

koff | Binder
3.03e-05 s⁻¹ | B5
0.000147 s⁻¹ | B6
0.000291 s⁻¹ | B1
0.000673 s⁻¹ | B7
0.000424 s⁻¹ | B2
0.000346 s⁻¹ | B8
0.00123 s⁻¹ | B3
0.00119 s⁻¹ | B4

Each binder was assayed against T3, human LILRB1 expressed on CHOK1 cells (human, UniProt Q8NHL6 24-650) (assay: flow cytometry (FACS) binding to CHOK1-hLILRB1 cells).
T3 construct: whole, on cells; also called CHOK1-hLILRB1; CHOK1-LILRB1
T3 sequence (Q8NHL6 24-650): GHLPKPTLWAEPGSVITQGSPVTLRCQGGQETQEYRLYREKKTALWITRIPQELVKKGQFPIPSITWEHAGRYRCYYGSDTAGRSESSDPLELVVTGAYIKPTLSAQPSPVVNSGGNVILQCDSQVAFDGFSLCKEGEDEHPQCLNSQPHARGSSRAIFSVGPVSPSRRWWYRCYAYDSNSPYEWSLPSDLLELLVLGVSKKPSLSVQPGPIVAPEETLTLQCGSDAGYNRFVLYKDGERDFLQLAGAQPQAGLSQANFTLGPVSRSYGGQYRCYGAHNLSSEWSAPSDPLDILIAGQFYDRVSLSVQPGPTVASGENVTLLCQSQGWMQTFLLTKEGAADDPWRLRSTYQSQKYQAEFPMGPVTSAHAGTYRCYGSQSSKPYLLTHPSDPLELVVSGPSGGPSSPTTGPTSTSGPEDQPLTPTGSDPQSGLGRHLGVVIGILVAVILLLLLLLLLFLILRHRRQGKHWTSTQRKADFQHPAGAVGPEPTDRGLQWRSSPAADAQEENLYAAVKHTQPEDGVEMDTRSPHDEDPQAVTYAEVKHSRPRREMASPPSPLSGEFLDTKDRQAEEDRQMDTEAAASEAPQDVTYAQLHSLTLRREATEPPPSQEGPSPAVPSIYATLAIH

EC50 | binding result | Binder
7.15 nM |  | B9
1.27 nM |  | B10
1.17 nM |  | B11
 | no binding | B12

These binders were tested against T4, human LILRB2 expressed on CHOK1 cells (human, UniProt Q8N423 22-597) (assay: flow cytometry (FACS) binding to CHOK1-hLILRB2 cells).
T4 construct: whole, on cells; also called CHOK1-hLILRB2; CHOK1-LILRB2
T4 sequence (Q8N423 22-597): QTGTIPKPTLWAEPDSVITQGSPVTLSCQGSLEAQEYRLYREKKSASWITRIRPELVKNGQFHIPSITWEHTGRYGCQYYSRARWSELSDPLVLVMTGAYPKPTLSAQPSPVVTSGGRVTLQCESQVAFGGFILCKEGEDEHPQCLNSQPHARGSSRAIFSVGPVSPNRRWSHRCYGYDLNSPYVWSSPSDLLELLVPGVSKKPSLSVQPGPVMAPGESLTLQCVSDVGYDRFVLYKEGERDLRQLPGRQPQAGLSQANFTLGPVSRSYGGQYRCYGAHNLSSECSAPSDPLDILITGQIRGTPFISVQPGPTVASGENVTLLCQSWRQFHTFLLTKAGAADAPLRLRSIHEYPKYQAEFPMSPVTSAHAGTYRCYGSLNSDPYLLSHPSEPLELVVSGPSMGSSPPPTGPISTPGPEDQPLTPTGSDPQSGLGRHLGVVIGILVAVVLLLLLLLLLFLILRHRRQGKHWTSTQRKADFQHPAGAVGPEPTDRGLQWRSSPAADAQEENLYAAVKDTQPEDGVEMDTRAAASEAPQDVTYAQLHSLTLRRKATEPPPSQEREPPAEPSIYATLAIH

EC50 | binding result | Binder
0.8 nM |  | B9
1.25 nM |  | B10
 | no binding | B11
0.27 nM |  | B12

The binders below were run against T3, human LILRB1 expressed on CHOK1 cells (assay: cell based RBA on CHOK1-hLILRB1 cells, flow cytometry; competitor HLA-G).

EC50 | Binder
1.4 µg/mL | B9
2.12 µg/mL | B10
2.05 µg/mL | B11

These binders were tested against T4, human LILRB2 expressed on CHOK1 cells (assay: cell based RBA on CHOK1-hLILRB2 cells, flow cytometry; competitor HLA-G).

EC50 | Binder
0.38 µg/mL | B9
0.19 µg/mL | B10
0.46 µg/mL | B12

Each binder was assayed against T5, human LILRA2-his (human, UniProt Q8N149 24-449, limits assumed) (assay: SPR (Biacore 8K), antibody captured via Fc, LILRA2-his as analyte, 1:1 model).
T5 construct: Analyte of the Biacore run; not shown: His tag
T5 sequence (Q8N149 24-449 limits assumed): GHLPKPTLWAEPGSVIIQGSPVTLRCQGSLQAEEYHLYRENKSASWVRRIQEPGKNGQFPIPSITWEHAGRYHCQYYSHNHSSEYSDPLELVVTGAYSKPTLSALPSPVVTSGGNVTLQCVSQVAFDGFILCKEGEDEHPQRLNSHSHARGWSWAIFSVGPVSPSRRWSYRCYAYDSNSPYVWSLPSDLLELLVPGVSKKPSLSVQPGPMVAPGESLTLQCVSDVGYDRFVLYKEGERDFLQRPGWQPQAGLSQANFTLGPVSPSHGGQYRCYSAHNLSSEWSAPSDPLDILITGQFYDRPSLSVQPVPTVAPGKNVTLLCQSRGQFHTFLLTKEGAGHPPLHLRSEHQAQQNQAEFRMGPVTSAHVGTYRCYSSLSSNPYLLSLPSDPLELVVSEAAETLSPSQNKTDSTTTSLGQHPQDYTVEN

Kd | koff | kon | Binder
13.3 nM | 0.00286 s⁻¹ | 215000 M⁻¹ s⁻¹ | B13
6.97 nM | 0.00132 s⁻¹ | 189000 M⁻¹ s⁻¹ | B14
10.4 nM | 0.00219 s⁻¹ | 210000 M⁻¹ s⁻¹ | B15
6.77 nM | 0.00126 s⁻¹ | 186000 M⁻¹ s⁻¹ | B16

What follows are binders tested against T6, human LILRB1-his (human, UniProt Q8NHL6 24-458, limits assumed) (assay: SPR (Biacore 8K), antibody captured via Fc, LILRB1-his as analyte, 1:1 model).
T6 construct: Analyte of the Biacore run; not shown: His tag
T6 sequence (Q8NHL6 24-458 limits assumed): as the sequence (Q8NHL6 24-458 limits assumed) above

Kd | koff | kon | Binder
0.836 nM | 0.000255 s⁻¹ | 305000 M⁻¹ s⁻¹ | B13
0.927 nM | 0.000224 s⁻¹ | 241000 M⁻¹ s⁻¹ | B14
0.825 nM | 0.000209 s⁻¹ | 253000 M⁻¹ s⁻¹ | B15
0.497 nM | 0.000115 s⁻¹ | 232000 M⁻¹ s⁻¹ | B16
